Results: patent publication US20210346401

What was measured:
[1] = molecular target: HA-tagged RIG-I (overexpressed in HEK293 cells) (UniProt O95786)
MITA-Y/F = MITA-Y/F (UniProt Q86WV6)
[2] = molecular target: HA-tagged VISA (overexpressed in HEK293 cells) (UniProt Q7Z434)
[3] = molecular target: HA-tagged cGAS (overexpressed in HEK293 cells) (UniProt Q8N884)
[4] = molecular target: HA-tagged TBK1 (overexpressed in HEK293 cells) (UniProt Q9UHD2)
[5] = molecular target: HA-tagged MITA (overexpressed in HEK293 cells) (UniProt Q86WV6)
Sequence of HA-tagged MITA (overexpressed in HEK293 cells) (Q86WV6 whole entry): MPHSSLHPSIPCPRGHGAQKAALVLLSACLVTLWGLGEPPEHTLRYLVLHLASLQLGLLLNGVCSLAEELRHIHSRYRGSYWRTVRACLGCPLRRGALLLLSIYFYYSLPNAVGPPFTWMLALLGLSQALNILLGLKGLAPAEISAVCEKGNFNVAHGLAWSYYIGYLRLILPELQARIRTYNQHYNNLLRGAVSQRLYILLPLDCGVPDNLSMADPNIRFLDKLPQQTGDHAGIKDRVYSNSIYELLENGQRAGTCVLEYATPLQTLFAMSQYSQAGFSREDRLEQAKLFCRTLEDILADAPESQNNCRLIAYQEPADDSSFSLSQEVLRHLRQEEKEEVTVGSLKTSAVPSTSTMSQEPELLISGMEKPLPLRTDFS

[6] = molecular target: HA-tagged IRF3 (overexpressed in HEK293 cells) (UniProt Q14653)
Sequence of HA-tagged IRF3 (overexpressed in HEK293 cells) (Q14653 whole entry): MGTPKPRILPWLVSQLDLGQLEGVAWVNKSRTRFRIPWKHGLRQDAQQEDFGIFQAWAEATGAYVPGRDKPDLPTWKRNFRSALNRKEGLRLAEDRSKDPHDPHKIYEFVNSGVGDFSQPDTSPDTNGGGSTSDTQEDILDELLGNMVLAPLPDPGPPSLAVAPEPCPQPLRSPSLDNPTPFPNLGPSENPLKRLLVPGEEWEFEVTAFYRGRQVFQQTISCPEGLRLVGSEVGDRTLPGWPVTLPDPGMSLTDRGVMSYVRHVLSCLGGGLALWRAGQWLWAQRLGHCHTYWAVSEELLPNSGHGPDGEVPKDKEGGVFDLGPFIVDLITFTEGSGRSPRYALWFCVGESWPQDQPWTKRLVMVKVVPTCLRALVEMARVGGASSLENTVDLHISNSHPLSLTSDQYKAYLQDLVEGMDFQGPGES

IRF3-Y/F = IRF3-Y/F (UniProt Q14653)
VISA-6YF = VISA-6YF (UniProt Q7Z434)
Sequence of VISA-6YF (Q7Z434 other isoform, or with tags, fused parts or gaps): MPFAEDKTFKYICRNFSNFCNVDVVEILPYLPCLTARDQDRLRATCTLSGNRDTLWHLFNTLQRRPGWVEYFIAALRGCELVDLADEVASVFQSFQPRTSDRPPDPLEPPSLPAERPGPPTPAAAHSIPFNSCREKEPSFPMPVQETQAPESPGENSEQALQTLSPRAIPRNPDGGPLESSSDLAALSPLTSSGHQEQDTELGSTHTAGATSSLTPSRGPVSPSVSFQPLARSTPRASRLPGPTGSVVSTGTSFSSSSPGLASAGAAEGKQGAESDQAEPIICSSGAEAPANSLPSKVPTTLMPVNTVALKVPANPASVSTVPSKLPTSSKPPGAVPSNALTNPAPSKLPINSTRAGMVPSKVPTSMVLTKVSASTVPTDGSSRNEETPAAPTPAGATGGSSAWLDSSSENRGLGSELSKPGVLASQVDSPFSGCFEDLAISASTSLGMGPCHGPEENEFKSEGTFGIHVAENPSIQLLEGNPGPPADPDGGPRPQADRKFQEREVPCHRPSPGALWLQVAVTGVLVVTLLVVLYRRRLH

[7] = molecular target: VISA/MAVS (endogenous, MLFs) (UniProt Q8VCF0)
Sequence of VISA/MAVS (endogenous, MLFs) (Q8VCF0 whole entry): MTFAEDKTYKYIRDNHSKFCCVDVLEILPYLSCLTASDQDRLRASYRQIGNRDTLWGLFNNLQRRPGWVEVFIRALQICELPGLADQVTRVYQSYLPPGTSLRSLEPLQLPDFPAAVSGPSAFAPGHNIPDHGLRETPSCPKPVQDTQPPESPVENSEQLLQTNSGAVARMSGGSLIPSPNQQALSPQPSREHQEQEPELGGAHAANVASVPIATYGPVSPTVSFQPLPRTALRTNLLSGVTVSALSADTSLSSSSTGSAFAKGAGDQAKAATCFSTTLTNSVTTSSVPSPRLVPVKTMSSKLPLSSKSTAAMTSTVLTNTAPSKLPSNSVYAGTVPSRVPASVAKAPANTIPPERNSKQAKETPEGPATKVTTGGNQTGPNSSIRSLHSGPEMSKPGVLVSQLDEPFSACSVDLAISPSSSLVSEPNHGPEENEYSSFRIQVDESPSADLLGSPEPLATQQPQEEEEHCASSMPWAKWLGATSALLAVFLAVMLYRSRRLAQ

IRF3 (endogenous, MLFs) = IRF3 (endogenous, MLFs) (UniProt P70671)
[8] = molecular target: MITA/STING (endogenous, MLFs) (UniProt Q3TBT3)
Sequence of MITA/STING (endogenous, MLFs) (Q3TBT3 whole entry): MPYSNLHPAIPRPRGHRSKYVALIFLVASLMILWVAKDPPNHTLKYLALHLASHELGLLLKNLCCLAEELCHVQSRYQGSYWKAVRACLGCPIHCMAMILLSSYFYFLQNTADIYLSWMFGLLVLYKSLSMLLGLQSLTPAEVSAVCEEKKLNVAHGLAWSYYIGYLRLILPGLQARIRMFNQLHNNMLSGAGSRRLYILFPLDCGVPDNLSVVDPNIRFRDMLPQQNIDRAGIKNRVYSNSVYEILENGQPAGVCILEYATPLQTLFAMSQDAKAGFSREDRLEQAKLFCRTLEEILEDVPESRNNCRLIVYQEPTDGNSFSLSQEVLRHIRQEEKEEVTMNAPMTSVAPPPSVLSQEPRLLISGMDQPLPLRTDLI

RIG-I (endogenous, MLFs) = RIG-I (endogenous, MLFs) (UniProt Q6Q899)
TBK1 (endogenous, MLFs) = TBK1 (endogenous, MLFs) (UniProt Q9WUN2)
Sequence of TBK1 (endogenous, MLFs) (Q9WUN2 whole entry): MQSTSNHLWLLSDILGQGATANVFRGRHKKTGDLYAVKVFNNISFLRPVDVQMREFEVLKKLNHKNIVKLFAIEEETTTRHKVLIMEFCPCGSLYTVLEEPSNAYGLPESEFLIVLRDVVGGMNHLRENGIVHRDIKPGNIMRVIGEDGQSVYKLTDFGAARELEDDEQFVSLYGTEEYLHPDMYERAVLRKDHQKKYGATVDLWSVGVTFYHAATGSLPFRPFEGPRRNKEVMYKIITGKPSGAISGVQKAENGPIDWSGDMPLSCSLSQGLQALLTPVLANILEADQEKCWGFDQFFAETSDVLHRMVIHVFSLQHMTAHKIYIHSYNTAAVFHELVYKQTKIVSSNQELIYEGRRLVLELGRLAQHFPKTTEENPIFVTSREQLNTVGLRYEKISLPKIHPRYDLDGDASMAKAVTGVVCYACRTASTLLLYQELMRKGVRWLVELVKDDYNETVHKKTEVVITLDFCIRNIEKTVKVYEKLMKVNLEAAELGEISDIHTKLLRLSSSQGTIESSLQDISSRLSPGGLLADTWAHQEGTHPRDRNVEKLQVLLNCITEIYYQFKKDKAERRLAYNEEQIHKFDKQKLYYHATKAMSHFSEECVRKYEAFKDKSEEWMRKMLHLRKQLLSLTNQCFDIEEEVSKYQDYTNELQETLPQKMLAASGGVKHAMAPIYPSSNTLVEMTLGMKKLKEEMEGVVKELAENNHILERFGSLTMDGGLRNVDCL

Sequence of HA-tagged RIG-I (overexpressed in HEK293 cells) (O95786 whole entry): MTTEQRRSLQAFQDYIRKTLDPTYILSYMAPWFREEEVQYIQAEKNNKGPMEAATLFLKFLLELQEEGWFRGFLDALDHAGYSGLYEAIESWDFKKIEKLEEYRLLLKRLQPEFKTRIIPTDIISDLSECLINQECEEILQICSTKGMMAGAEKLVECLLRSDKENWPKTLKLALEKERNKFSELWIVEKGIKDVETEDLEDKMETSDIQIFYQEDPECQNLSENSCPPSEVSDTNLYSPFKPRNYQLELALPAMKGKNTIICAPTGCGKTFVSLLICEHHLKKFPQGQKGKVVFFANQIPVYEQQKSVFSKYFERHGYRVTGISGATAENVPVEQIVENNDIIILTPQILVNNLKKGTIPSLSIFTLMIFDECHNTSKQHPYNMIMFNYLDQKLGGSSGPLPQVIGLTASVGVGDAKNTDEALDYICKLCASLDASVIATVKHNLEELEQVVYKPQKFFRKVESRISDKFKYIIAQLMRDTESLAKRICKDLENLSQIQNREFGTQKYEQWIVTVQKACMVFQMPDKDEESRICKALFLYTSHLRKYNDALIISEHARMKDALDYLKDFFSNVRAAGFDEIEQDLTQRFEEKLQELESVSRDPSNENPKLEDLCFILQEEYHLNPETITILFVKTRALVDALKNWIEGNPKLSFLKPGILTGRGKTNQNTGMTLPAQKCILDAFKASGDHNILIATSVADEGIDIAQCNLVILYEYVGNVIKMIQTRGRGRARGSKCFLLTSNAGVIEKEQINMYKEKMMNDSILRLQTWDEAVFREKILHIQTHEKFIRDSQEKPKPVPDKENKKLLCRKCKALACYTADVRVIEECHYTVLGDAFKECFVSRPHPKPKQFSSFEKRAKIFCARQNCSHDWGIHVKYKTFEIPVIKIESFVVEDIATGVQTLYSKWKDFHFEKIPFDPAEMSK
Sequence of HA-tagged VISA (overexpressed in HEK293 cells) (Q7Z434 whole entry): as the sequence (Q7Z434 other isoform, or with tags, fused parts or gaps) above, with F9Y, F92Y, F95Y, F130Y, F140Y, F460Y counted along it
Sequence of HA-tagged cGAS (overexpressed in HEK293 cells) (Q8N884 whole entry): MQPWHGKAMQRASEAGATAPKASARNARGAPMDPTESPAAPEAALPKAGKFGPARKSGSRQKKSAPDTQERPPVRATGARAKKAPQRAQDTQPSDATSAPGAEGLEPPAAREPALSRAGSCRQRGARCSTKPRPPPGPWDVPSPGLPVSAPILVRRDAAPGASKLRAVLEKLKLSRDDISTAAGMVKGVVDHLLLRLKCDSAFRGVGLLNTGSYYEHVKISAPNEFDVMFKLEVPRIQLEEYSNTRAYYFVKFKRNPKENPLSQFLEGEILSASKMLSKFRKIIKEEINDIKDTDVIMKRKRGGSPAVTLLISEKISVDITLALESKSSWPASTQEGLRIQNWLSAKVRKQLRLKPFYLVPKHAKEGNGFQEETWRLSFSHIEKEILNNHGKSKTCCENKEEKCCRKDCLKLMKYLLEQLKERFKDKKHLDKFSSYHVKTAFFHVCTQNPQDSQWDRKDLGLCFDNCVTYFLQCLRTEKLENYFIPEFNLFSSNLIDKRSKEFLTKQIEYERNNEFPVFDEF

Substance	tyrosine phosphorylation (IP with HA antibody, immunoblot) [1]	SRC-mediated tyrosine phosphorylation (IP, immunoblot) (MITA-Y/F)	tyrosine phosphorylation (IP with HA antibody, immunoblot) [2]	tyrosine phosphorylation (IP with HA antibody, immunoblot) [3]	tyrosine phosphorylation (IP with HA antibody, immunoblot) [4]	tyrosine phosphorylation (IP with HA antibody, immunoblot) [5]	tyrosine phosphorylation (IP with HA antibody, immunoblot) [6]	SRC-mediated tyrosine phosphorylation (IP, immunoblot) (IRF3-Y/F)	SRC-mediated tyrosine phosphorylation (IP, immunoblot) (VISA-6YF)	virus-induced tyrosine phosphorylation in SRC-deficient MLFs (IP, immunoblot) [7]	virus-induced tyrosine phosphorylation in SRC-deficient MLFs (IP, immunoblot) (IRF3 (endogenous, MLFs))	virus-induced tyrosine phosphorylation in SRC-deficient MLFs (IP, immunoblot) [8]	virus-induced tyrosine phosphorylation in SRC-deficient MLFs (IP, immunoblot) (RIG-I (endogenous, MLFs))	virus-induced tyrosine phosphorylation in SRC-deficient MLFs (IP, immunoblot) (TBK1 (endogenous, MLFs))
Flag-tagged SRC (overexpressed in HEK293 cells)	overexpression of SRC caused tyrosine phosphorylation of RIG-I, VISA, MITA, TBK1 and IRF3, but not cGAS	Mutation of Y245 of MITA to F (MITA-Y/F) abolished SRC-mediated tyrosine phosphorylation of MITA	overexpression of SRC caused tyrosine phosphorylation of RIG-I, VISA, MITA, TBK1 and IRF3, but not cGAS	overexpression of SRC caused tyrosine phosphorylation of RIG-I, VISA, MITA, TBK1 and IRF3, but not cGAS	overexpression of SRC caused tyrosine phosphorylation of RIG-I, VISA, MITA, TBK1 and IRF3, but not cGAS	overexpression of SRC caused tyrosine phosphorylation of RIG-I, VISA, MITA, TBK1 and IRF3, but not cGAS	overexpression of SRC caused tyrosine phosphorylation of RIG-I, VISA, MITA, TBK1 and IRF3, but not cGAS	Mutation of Y107 of IRF3 to F (IRF3-Y/F) impaired SRC-mediated tyrosine phosphorylation of IRF3	Simultaneous mutation of Y9, Y92, Y95, Y130, Y140 and Y460 of VISA to F (VISA-6YF) impaired SRC-mediated tyrosine phosphorylation					
SRC (endogenous, MLFs)										SRC-deficiency impaired SeV- or HSV-1-induced tyrosine phosphorylation of endogenous RIG-I, VISA/MAVS, TBK1, IRF3 and MITA/STING	SRC-deficiency impaired SeV- or HSV-1-induced tyrosine phosphorylation of endogenous RIG-I, VISA/MAVS, TBK1, IRF3 and MITA/STING	SRC-deficiency impaired SeV- or HSV-1-induced tyrosine phosphorylation of endogenous RIG-I, VISA/MAVS, TBK1, IRF3 and MITA/STING	SRC-deficiency impaired SeV- or HSV-1-induced tyrosine phosphorylation of endogenous RIG-I, VISA/MAVS, TBK1, IRF3 and MITA/STING	SRC-deficiency impaired SeV- or HSV-1-induced tyrosine phosphorylation of endogenous RIG-I, VISA/MAVS, TBK1, IRF3 and MITA/STING
